Assay results from US20200199241A1 (Chugai, published 2020).
Positions count from the first letter of the chain named.

B1: IgG1-F147 (antibody)
heavy: QVQLQESGPGLVKPSETLSLTCAVSGHSISHDHAWSWVRQPPGEGLEWIGFISYSGITNYNPSLQGRVTISRDNSKNTLYLQMNSLRAEDTAVYYCARSLARTTAMDYWGEGTLVTVSSASTKGPSVFPLAPSSKSTSGGTAALGCLVKDYFPEPVTVSWNSGALTSGVHTFPAVLQSSGLYSLSSVVTVPSSSLGTQTYICNVNHKPSNTKVDKKVEPKSCDKTHTCPPCPAPELLGGPSVFLFPPKPKDTLYISRTPEVTCVVVDVSHEDPEVKFNWYVDGVEVHNAKTKPREEQYNSTYRVVSVLTILHQDWLNGKEYKCKVSNKALPAPIEKTISKAKGQPREPQVYTLPPSRDELTKNQVSLTCLVKGFYPSDIAVEWESNGQPENNYKTTPPVLDSDGSFFLYSKLTVDKSRWQQGNVFSCSVMHEALHYHYTQKSLSLSP
light: not shown
notes: EU numbering; copies: 2 + 2
B2: IgG1-F165 (antibody)
heavy: B1 heavy with Y254W, D267A, I310V
light: not shown
notes: EU numbering; copies: 2 + 2
B3: IgG1-F170 (antibody)
heavy: B1 heavy with Y254W, I310V, Q313A
light: not shown
notes: EU numbering; copies: 2 + 2
B4: IgG1-F192 (antibody)
heavy: B1 heavy with Y254M, P259A, T309A, I310V, M430L
light: not shown
notes: EU numbering; copies: 2 + 2
B5: IgG1-F184 (antibody)
heavy: B1 heavy with Y254M, P259V, I310V, M430L, Y436W
light: not shown
notes: EU numbering; copies: 2 + 2
B6: IgG1-F158 (antibody)
heavy: B1 heavy with Y254M, P259T, I310P, M430L
light: not shown
notes: EU numbering; copies: 2 + 2
B7: IgG1-F160 (antibody)
heavy: B1 heavy with Y254W, I310V, M430I
light: not shown
notes: EU numbering; copies: 2 + 2
B8: IgG1-F154 (antibody)
heavy: B1 heavy with I310T
light: not shown
notes: EU numbering; copies: 2 + 2
B9: IgG1-F178 (antibody)
heavy: B1 heavy with Y254W, D272F, I310V
light: not shown
notes: EU numbering; copies: 2 + 2
B10: IgG1-F177 (antibody)
heavy: B1 heavy with Y254W, S300G, I310V
light: not shown
notes: EU numbering; copies: 2 + 2
B11: IgG1-F174 (antibody)
heavy: B1 heavy with Y254W, I310V, E384A
light: not shown
notes: EU numbering; copies: 2 + 2
B12: IgG1-F193 (antibody)
heavy: B1 heavy with Y254M, P259T, T309A, I310V, M430L
light: not shown
notes: EU numbering; copies: 2 + 2
B13: IgG1-F211 (antibody)
heavy: B1 heavy with T309P, I310V
light: not shown
notes: EU numbering; copies: 2 + 2
B14: IgG1-F198 (antibody)
heavy: B1 heavy with Y254M, P259V, T309Q, I310V, M430L
light: not shown
notes: EU numbering; copies: 2 + 2
B15: IgG1-F149 (antibody)
heavy: B1 heavy with I310L
light: not shown
notes: EU numbering; copies: 2 + 2
B16: IgG1-F152 (antibody)
heavy: B1 heavy with I310Q
light: not shown
notes: EU numbering; copies: 2 + 2
B17: IgG1-F215 (antibody)
heavy: B1 heavy with T309W, I310V
light: not shown
notes: EU numbering; copies: 2 + 2
B18: IgG1-F220 (antibody)
heavy: B1 heavy with I310V, Q313H
light: not shown
notes: EU numbering; copies: 2 + 2
B19: IgG1-F189 (antibody)
heavy: B1 heavy with T309A, I310V
light: not shown
notes: EU numbering; copies: 2 + 2
B20: IgG1-F168 (antibody)
heavy: B1 heavy with Y254W, I310V, D378A
light: not shown
notes: EU numbering; copies: 2 + 2
B21: IgG1-F179 (antibody)
heavy: B1 heavy with Y254W, I310V, N327G
light: not shown
notes: EU numbering; copies: 2 + 2
B22: IgG1-F208 (antibody)
heavy: B1 heavy with T309L, I310V
light: not shown
notes: EU numbering; copies: 2 + 2
B23: IgG1-F217 (antibody)
heavy: B1 heavy with I310V, K336L
light: not shown
notes: EU numbering; copies: 2 + 2
B24: IgG1-F173 (antibody)
heavy: B1 heavy with Y254W, I310V, E382A
light: not shown
notes: EU numbering; copies: 2 + 2
B25: IgG1-F163 (antibody)
heavy: B1 heavy with Y254W, I310V, M430F
light: not shown
notes: EU numbering; copies: 2 + 2
B26: IgG1-F222 (antibody)
heavy: B1 heavy with I310V, N317H
light: not shown
notes: EU numbering; copies: 2 + 2
B27: IgG1-F221 (antibody)
heavy: B1 heavy with I310V, D314H
light: not shown
notes: EU numbering; copies: 2 + 2
B28: IgG1-F190 (antibody)
heavy: B1 heavy with T309Q, I310V
light: not shown
notes: EU numbering; copies: 2 + 2
B29: IgG1-F183 (antibody)
heavy: B1 heavy with Y254M, P259T, I310V, M430L, Y436W
light: not shown
notes: EU numbering; copies: 2 + 2
B30: IgG1-F212 (antibody)
heavy: B1 heavy with T309R, I310V
light: not shown
notes: EU numbering; copies: 2 + 2
B31: IgG1-F196 (antibody)
heavy: B1 heavy with Y254M, P259A, T309Q, I310V, M430L
light: not shown
notes: EU numbering; copies: 2 + 2
B32: IgG1-F167 (antibody)
heavy: B1 heavy with Y254W, V305A, I310V
light: not shown
notes: EU numbering; copies: 2 + 2
B33: IgG1-F204 (antibody)
heavy: B1 heavy with T309G, I310V
light: not shown
notes: EU numbering; copies: 2 + 2
B34: IgG1-F223 (antibody)
heavy: B1 heavy with I310V, K362H
light: not shown
notes: EU numbering; copies: 2 + 2
B35: IgG1-F225 (antibody)
heavy: B1 heavy with I310V, L316R
light: not shown
notes: EU numbering; copies: 2 + 2
B36: IgG1-F164 (antibody)
heavy: B1 heavy with P240A, Y254W, I310V
light: not shown
notes: EU numbering; copies: 2 + 2
B37: IgG1-F191 (antibody)
heavy: B1 heavy with Y254M, P259L, T309A, I310V, M430L
light: not shown
notes: EU numbering; copies: 2 + 2
B38: IgG1-F205 (antibody)
heavy: B1 heavy with T309H, I310V
light: not shown
notes: EU numbering; copies: 2 + 2
B39: IgG1-F213 (antibody)
heavy: B1 heavy with T309S, I310V
light: not shown
notes: EU numbering; copies: 2 + 2
B40: IgG1-F182 (antibody)
heavy: B1 heavy with Y254M, P259A, I310V, M430L, Y436W
light: not shown
notes: EU numbering; copies: 2 + 2
B41: IgG1-F209 (antibody)
heavy: B1 heavy with T309M, I310V
light: not shown
notes: EU numbering; copies: 2 + 2
B42: IgG1-F171 (antibody)
heavy: B1 heavy with Y254W, I310V, D314A
light: not shown
notes: EU numbering; copies: 2 + 2
B43: IgG1-F194 (antibody)
heavy: B1 heavy with Y254M, P259V, T309A, I310V, M430L
light: not shown
notes: EU numbering; copies: 2 + 2
B44: IgG1-F218 (antibody)
heavy: B1 heavy with I310V, G387H
light: not shown
notes: EU numbering; copies: 2 + 2
B45: IgG1-F157 (antibody)
heavy: B1 heavy with Y254M, P259A, I310P, M430L
light: not shown
notes: copies: 2 + 2
B46: IgG1-F210 (antibody)
heavy: B1 heavy with T309N, I310V
light: not shown
notes: EU numbering; copies: 2 + 2
B47: IgG1-F219 (antibody)
heavy: B1 heavy with T291H, I310V
light: not shown
notes: EU numbering; copies: 2 + 2
B48: IgG1-F172 (antibody)
heavy: B1 heavy with Y254W, I310V, K319A
light: not shown
notes: EU numbering; copies: 2 + 2
B49: IgG1-F169 (antibody)
heavy: B1 heavy with Y254W, V307A, I310V
light: not shown
notes: EU numbering; copies: 2 + 2
B50: IgG1-F201 (antibody)
heavy: B1 heavy with T309D, I310V
light: not shown
notes: EU numbering; copies: 2 + 2
B51: IgG1-F206 (antibody)
heavy: B1 heavy with T309I, I310V
light: not shown
notes: EU numbering; copies: 2 + 2
B52: IgG1-F216 (antibody)
heavy: B1 heavy with T309Y, I310V
light: not shown
notes: EU numbering; copies: 2 + 2
B53: IgG1-F166 (antibody)
heavy: B1 heavy with Y254W, T309Q, I310V
light: not shown
notes: EU numbering; copies: 2 + 2
B54: IgG1-F195 (antibody)
heavy: B1 heavy with Y254M, P259L, T309Q, I310V, M430L
light: not shown
notes: EU numbering; copies: 2 + 2
B55: IgG1-F214 (antibody)
heavy: B1 heavy with T309V, I310V
light: not shown
notes: EU numbering; copies: 2 + 2
B56: IgG1-F176 (antibody)
heavy: B1 heavy with S241K, Y254W, I310V
light: not shown
notes: EU numbering; copies: 2 + 2
B57: IgG1-F159 (antibody)
heavy: B1 heavy with Y254M, P259V, I310P, M430L
light: not shown
notes: EU numbering; copies: 2 + 2
B58: IgG1-F203 (antibody)
heavy: B1 heavy with T309F, I310V
light: not shown
notes: EU numbering; copies: 2 + 2
B59: IgG1-F162 (antibody)
heavy: B1 heavy with Y254W, I310V, M430Y
light: not shown
notes: EU numbering; copies: 2 + 2
B60: IgG1-F175 (antibody)
heavy: B1 heavy with Y254W, I310V, S426A
light: not shown
notes: EU numbering; copies: 2 + 2

What follows are binders tested against T1, human FcRn (soluble human FcRn complexed with β2-microglobulin) (human, UniProt P61769 21-119, limits assumed) (assay: SPR, pH 7.0;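 further: antibodies captured on a Protein L sensor chip with human FcRn injected as analyte, KD calculated from fitted association and dissociation rate constants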).
T1 construct: also called hFcRn
T1 sequence (chain, as listed by the source limits assumed, chain 1 of 2): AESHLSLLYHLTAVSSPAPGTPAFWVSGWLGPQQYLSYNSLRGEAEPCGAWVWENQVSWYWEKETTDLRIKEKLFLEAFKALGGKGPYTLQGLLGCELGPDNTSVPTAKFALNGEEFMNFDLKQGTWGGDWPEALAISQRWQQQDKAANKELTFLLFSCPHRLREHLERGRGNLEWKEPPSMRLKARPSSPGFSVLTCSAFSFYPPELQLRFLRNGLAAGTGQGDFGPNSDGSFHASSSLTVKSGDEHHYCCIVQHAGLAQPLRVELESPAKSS
T1 sequence (P61769 21-119 limits assumed, chain 2 of 2): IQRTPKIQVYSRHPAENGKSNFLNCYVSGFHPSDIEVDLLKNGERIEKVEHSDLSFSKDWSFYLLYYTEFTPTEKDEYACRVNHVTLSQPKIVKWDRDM

In order of rising Kd:
1. B31  35 nM
2. B57  44 nM
3. B14  48 nM
4. B54  56 nM
5. B6  59 nM
6. B40  66 nM
7. B12  85 nM
8. B17  96 nM
9. B4  110 nM
10. B28  110 nM
11. B43  120 nM
12. B41  130 nM
13. B45  150 nM
14. B53  150 nM
15. B37  160 nM
16. B59  160 nM
17. B3  170 nM
18. B55  170 nM
19. B8  180 nM
20. B15  190 nM
21. B19  190 nM
22. B42  190 nM
23. B38  200 nM
24. B33  210 nM
25. B50  210 nM
26. B29  220 nM
27. B48  220 nM
28. B23  230 nM
29. B39  230 nM
30. B51  230 nM
31. B52  230 nM
32. B1  240 nM
33. B13  240 nM
34. B58  240 nM
35. B18  250 nM
36. B47  250 nM
37. B44  260 nM
38. B5  270 nM
39. B9  270 nM
40. B16  270 nM
41. B34  270 nM
42. B60  270 nM
43. B10  280 nM
44. B2  290 nM
45. B32  290 nM
46. B46  290 nM
47. B49  290 nM
48. B56  290 nM
49. B21  310 nM
50. B27  310 nM
51. B20  320 nM
52. B11  340 nM
53. B26  340 nM
54. B36  370 nM
55. B22  390 nM
56. B25  420 nM
57. B30  680 nM
58. B24  770 nM
59. B7  850 nM
60. B35  1500 nM
